Assay results: PMC3776778, “A Fully Human Inhibitory Monoclonal Antibody to the Wnt Receptor RYK” (PLoS ONE, 2013)

Biological target: T1, recombinant mouse Wnt3a protein (mouse, UniProt P27467 19-352)
T1 construct: recombinant mouse Wnt3a (R&D Systems); the bought protein is probably the mature secreted form (surmise); also called recombinant Wnt3a protein; source: bought: R&D Systems
Assay: ELISA; competitive ELISA, third round of a screen of a human scFv phage display library: phage clones against recombinant mouse Wnt3a for binding to purified hRYKWD.Fc
Details: both partners purified

T1 sequence (P27467 19-352): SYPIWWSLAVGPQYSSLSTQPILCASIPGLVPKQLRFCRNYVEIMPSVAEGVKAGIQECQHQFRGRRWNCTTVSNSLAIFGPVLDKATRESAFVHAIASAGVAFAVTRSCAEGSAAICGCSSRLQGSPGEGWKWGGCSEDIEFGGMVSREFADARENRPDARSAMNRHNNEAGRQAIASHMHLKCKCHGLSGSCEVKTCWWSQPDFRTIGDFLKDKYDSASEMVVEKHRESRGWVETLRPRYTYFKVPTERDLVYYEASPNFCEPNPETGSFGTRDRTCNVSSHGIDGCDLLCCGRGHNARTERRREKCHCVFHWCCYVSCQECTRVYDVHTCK

binding result: binds
B1: hRYKWD.Fc (WIF domain of human RYK fused to the Fc.FLAG region of human IgG1) (Fc fusion, UniProt P34925 66-194, looked up)
chain: LYLSEDEVRRLIGLDAELYYVRNDLISHYALSFSLLVPSETNFLHFTWHAKSKVEYKLGFQVDNVLAMDMPQVNISVQGEVPRTLSVFRVELSCTGKVDSEVMILMQLNLTVNSSKNFTVLNFKRRKMC
notes: WIF domain of human RYK, lacking the metalloprotease cleavage site; also called hRYKWD.Fc.FLAG; human RYK WIF domain-only fusion protein
